Assay results: US20240002497A1
Changes are numbered by the printed parent chain. Names may count otherwise.

Columns and labels:
[1] = target: rhNav1.7α + β1-β2-β3 (rhesus Nav1.7α co-expressed with Navβ1, Navβ2 and Navβ3) (rhesus monkey); experiment: FACS, periplasmic extract, CHO Flp-In cells; SD MFI 18
[2] = target: muNav1.7α (murine Nav1.7α) (murine) (UniProt Q62205); experiment: FACS, periplasmic extract, HEK Jmp-In cells; SD MFI 1
[3] = target: rhNav1.7α + β1-β2-β3 (rhesus Nav1.7α co-expressed with Navβ1, Navβ2 and Navβ3) (rhesus monkey); experiment: FACS, periplasmic extract, CHO Flp-In cells; SD MFI 6
[4] = target: muNav1.7α (murine Nav1.7α) (murine) (UniProt Q62205); experiment: FACS, periplasmic extract, HEK Jmp-In cells; SD MFI 25
[5] = target: rhNav1.7α + β1-β2-β3 (rhesus Nav1.7α co-expressed with Navβ1, Navβ2 and Navβ3) (rhesus monkey); experiment: FACS, periplasmic extract, CHO Flp-In cells; SD MFI 8
[6] = target: muNav1.7α (murine Nav1.7α) (murine) (UniProt Q62205); experiment: FACS, periplasmic extract, HEK Jmp-In cells; SD MFI 21
[7] = target: rhNav1.7α + β1-β2-β3 (rhesus Nav1.7α co-expressed with Navβ1, Navβ2 and Navβ3) (rhesus monkey); experiment: FACS, periplasmic extract, CHO Flp-In cells; SD MFI 10
[8] = target: muNav1.7α (murine Nav1.7α) (murine) (UniProt Q62205); experiment: FACS, periplasmic extract, HEK Jmp-In cells; SD MFI 123
[9] = target: rhNav1.7α + β1-β2-β3 (rhesus Nav1.7α co-expressed with Navβ1, Navβ2 and Navβ3) (rhesus monkey); experiment: FACS, periplasmic extract, CHO Flp-In cells; SD MFI 13
[10] = target: muNav1.7α (murine Nav1.7α) (murine) (UniProt Q62205); experiment: FACS, periplasmic extract, HEK Jmp-In cells; SD MFI 16
[11] = target: rhNav1.7α + β1-β2-β3 (rhesus Nav1.7α co-expressed with Navβ1, Navβ2 and Navβ3) (rhesus monkey); experiment: FACS, periplasmic extract, CHO Flp-In cells; SD MFI 20
[12] = target: muNav1.7α (murine Nav1.7α) (murine) (UniProt Q62205); experiment: FACS, periplasmic extract, HEK Jmp-In cells; SD MFI 61
[13] = target: rhNav1.7α + β1-β2-β3 (rhesus Nav1.7α co-expressed with Navβ1, Navβ2 and Navβ3) (rhesus monkey); experiment: FACS, periplasmic extract, CHO Flp-In cells; SD MFI 2
[14] = target: muNav1.7α (murine Nav1.7α) (murine) (UniProt Q62205); experiment: FACS, periplasmic extract, HEK Jmp-In cells; SD MFI 3361
[15] = target: rhNav1.7α + β1-β2-β3 (rhesus Nav1.7α co-expressed with Navβ1, Navβ2 and Navβ3) (rhesus monkey); experiment: FACS, periplasmic extract, CHO Flp-In cells; SD MFI 0
[16] = target: muNav1.7α (murine Nav1.7α) (murine) (UniProt Q62205); experiment: FACS, periplasmic extract, HEK Jmp-In cells; SD MFI 5
[17] = target: rhNav1.7α + β1-β2-β3 (rhesus Nav1.7α co-expressed with Navβ1, Navβ2 and Navβ3) (rhesus monkey); experiment: FACS, periplasmic extract, CHO Flp-In cells; SD MFI 30
[18] = target: muNav1.7α (murine Nav1.7α) (murine) (UniProt Q62205); experiment: FACS, periplasmic extract, HEK Jmp-In cells; SD MFI 19
[19] = target: rhNav1.7α + β1-β2-β3 (rhesus Nav1.7α co-expressed with Navβ1, Navβ2 and Navβ3) (rhesus monkey); experiment: FACS, periplasmic extract, CHO Flp-In cells; SD MFI 22
[20] = target: muNav1.7α (murine Nav1.7α) (murine) (UniProt Q62205); experiment: FACS, periplasmic extract, HEK Jmp-In cells; SD MFI 7
[21] = target: muNav1.7α (murine Nav1.7α) (murine) (UniProt Q62205); experiment: FACS, periplasmic extract, HEK Jmp-In cells; SD MFI 0
[22] = target: rhNav1.7α + β1-β2-β3 (rhesus Nav1.7α co-expressed with Navβ1, Navβ2 and Navβ3) (rhesus monkey); experiment: FACS, periplasmic extract, CHO Flp-In cells; SD MFI 1
[23] = target: muNav1.7α (murine Nav1.7α) (murine) (UniProt Q62205); experiment: FACS, periplasmic extract, HEK Jmp-In cells; SD MFI 12
[24] = target: huNav1.7α + β1-β2-β3 (human Nav1.7α co-expressed with Navβ1, Navβ2 and Navβ3) (human) (UniProt Q15858); experiment: FACS, periplasmic extract, CHO Flp-In cells; SD MFI 16
[25] = target: rhNav1.7α + β1-β2-β3 (rhesus Nav1.7α co-expressed with Navβ1, Navβ2 and Navβ3) (rhesus monkey); experiment: FACS, periplasmic extract, CHO Flp-In cells; SD MFI 4
[26] = target: muNav1.7α (murine Nav1.7α) (murine) (UniProt Q62205); experiment: FACS, periplasmic extract, HEK Jmp-In cells; SD MFI 23
[27] = target: rhNav1.7α + β1-β2-β3 (rhesus Nav1.7α co-expressed with Navβ1, Navβ2 and Navβ3) (rhesus monkey); experiment: FACS, periplasmic extract, CHO Flp-In cells; SD MFI 33
[28] = target: muNav1.7α (murine Nav1.7α) (murine) (UniProt Q62205); experiment: FACS, periplasmic extract, HEK Jmp-In cells; SD MFI 8
[29] = target: muNav1.7α (murine Nav1.7α) (murine) (UniProt Q62205); experiment: FACS, periplasmic extract, HEK Jmp-In cells; SD MFI 15
[30] = target: huNav1.5-β1-β2-β3 (human) (UniProt Q14524); experiment: FACS, CHO Flp-In, competitor 1 µM F010300703
[31] = target: huNav1.5-β1-β2-β3 (human) (UniProt Q14524); experiment: binding FACS, HEK Flp-In
[32] = target: huNav1.5-β1-β2-β3 (human) (UniProt Q14524); experiment: binding FACS, CHO Flp-In, periplasmic extract
[33] = target: huNav1.5-β1-β2-β3 (human) (UniProt Q14524); experiment: FACS, CHO Flp-In, competitor 1 µM IRR00092

B1: F0103464B09 N99A library variant (VHH, name in Kabat numbering)
VHH: EVQLVESGGGLVQPGGSLRLSCATTSRAFIRDVFTGWYRRVPGKERELVARIYNGGNTNYADFAKGRFSISRDNAKKMVTLRMSNLKPEDTGVYYCLFSGTIATGREYRSGDYWGQGTLVTVSS
Mean MFI [1]: 611 MFI

B2: F0103464B09 N99E library variant (VHH, name in Kabat numbering)
VHH: B1 VHH with A103E
Mean MFI [2]: 938 MFI
Mean MFI [3]: 528 MFI

B3: F0103464B09 N99C library variant (VHH, name in Kabat numbering)
VHH: B1 VHH with A103C
Mean MFI [4]: 930 MFI
Mean MFI [3]: 528 MFI

B4: F0103464B09 N99G library variant (VHH, name in Kabat numbering)
VHH: B1 VHH with A103G
Mean MFI [5]: 530 MFI
Mean MFI [6]: 956 MFI

B5: F0103464B09 N99Q library variant (VHH, name in Kabat numbering)
VHH: B1 VHH with A103Q
Mean MFI [7]: 546 MFI
Mean MFI [8]: 1490 MFI

B6: F0103464B09 T100V library variant (VHH, name in Kabat numbering)
VHH: B1 VHH with A103N, T104V
Mean MFI [9]: 564 MFI
Mean MFI [10]: 1680 MFI

B7: F0103464B09 N99Y library variant (VHH, name in Kabat numbering)
VHH: B1 VHH with A103Y
Mean MFI [11]: 490 MFI
Mean MFI [12]: 936 MFI

B8: F0103464B09 N99W library variant (VHH, name in Kabat numbering)
VHH: B1 VHH with A103W
Mean MFI [13]: 530 MFI
Mean MFI [14]: 3320 MFI

B9: F0103464B09 N99R library variant (VHH, name in Kabat numbering)
VHH: B1 VHH with A103R
Mean MFI [15]: 572 MFI
Mean MFI [16]: 975 MFI

B10: F0103464B09 N99V library variant (VHH, name in Kabat numbering)
VHH: B1 VHH with A103V
Mean MFI [3]: 552 MFI
Mean MFI [10]: 952 MFI

B11: F0103464B09 T100F library variant (VHH, name in Kabat numbering)
VHH: B1 VHH with A103N, T104F
Mean MFI [17]: 533 MFI
Mean MFI [18]: 997 MFI

B12: F0103464B09 N99L library variant (VHH, name in Kabat numbering)
VHH: B1 VHH with A103L
Mean MFI [7]: 536 MFI
Mean MFI [18]: 919 MFI

B13: F0103464B09 N99T library variant (VHH, name in Kabat numbering)
VHH: B1 VHH with A103T
Mean MFI [19]: 839 MFI

B14: F0103464B09 N99I library variant (VHH, name in Kabat numbering)
VHH: B1 VHH with A103I
Mean MFI [20]: 946 MFI
Mean MFI [3]: 540 MFI

B15: F0103464B09 N99D library variant (VHH, name in Kabat numbering)
VHH: B1 VHH with A103D
Mean MFI [17]: 520 MFI
Mean MFI [21]: 929 MFI

B16: F0103464B09 T100D library variant (VHH, name in Kabat numbering)
VHH: B1 VHH with A103N, T104D
Mean MFI [22]: 526 MFI

B17: F0103464B09 N99P library variant (VHH, name in Kabat numbering)
VHH: B1 VHH with A103P
Mean MFI [11]: 554 MFI
Mean MFI [23]: 912 MFI
Mean MFI [24]: 612 MFI

B18: F0103464B09 T100H library variant (VHH, name in Kabat numbering)
VHH: B1 VHH with A103N, T104H
Mean MFI [25]: 689 MFI

B19: F0103464B09 T100E library variant (VHH, name in Kabat numbering)
VHH: B1 VHH with A103N, T104E
Mean MFI [26]: 973 MFI
Mean MFI [27]: 518 MFI

B20: F0103464B09 N99F library variant (VHH, name in Kabat numbering)
VHH: B1 VHH with A103F
Mean MFI [2]: 938 MFI
Mean MFI [3]: 516 MFI

B21: F0103464B09 N99K library variant (VHH, name in Kabat numbering)
VHH: B1 VHH with A103K
Mean MFI [22]: 537 MFI
Mean MFI [28]: 923 MFI

B22: F0103464B09 N99M library variant (VHH, name in Kabat numbering)
VHH: B1 VHH with A103M
Mean MFI [15]: 523 MFI
Mean MFI [29]: 936 MFI

B23: F0103PMP492E09 (bispecific antibody)
chain: EVQLVESGGGLVQPGGSLRLSCAASGSIFNINSMAWYRRAPGKQRELVASSTNGGSTNYADSVKGRFTISRDNAKRVYLQMNSLTPEDTAVYYCRALLQPSIYDISRTYWGQGTLVTVSSGGGGSGGGGSGGGGSGGGGSGGGGSGGGGSGGGGSGGGGSGGGGSGGGGSEVQLVESGGGLVQAGGSLRLSCAASKSILSFAYMRWYRQAPGKQREFVASIAIGGATSYTDSVKGRFTISRDNAKNTVYLQMNSLKPEDTAVYYCSAPAGQYRGQGTLVTVSSAAADYKDHDGDYKDHDIDYKDDDDKGAAHHHHHHKAAGGGGG
MFI [30]: 825 MFI
MFI [31]: 1660 MFI
MFI [32]: 559 MFI
MFI [33]: 1860 MFI

B24: F0103PMP478E09 (bispecific antibody)
chain: EVQLVESGGGLVQPGGSLRLSCAASGSIFNINSMAWYRRAPGKQRELVASSTNGGSTNYADSVKGRFTISRDNAKRVYLQMNSLTPEDTAVYYCRALLQPSIYDISRTYWGQGTLVTVSSGGGGSGGGGSGGGGSGGGGSGGGGSGGGGSGGGGSGGGGSGGGGSGGGGSEVQLVESGGGLVQAGGSLRLSCAASGRAFSTLAMGWFRQAPGKEREFVAAISRNGNNSATGDSLKGRFTISRDSTKSTVFLQMNTLKPEDTAVYYCAAISTPSASHPYVRKESYRYWGQGTQVTVSSAAADYKDHDGDYKDHDIDYKDDDDKGAAHHHHHHKAAGGGGG
MFI [30]: 833 MFI
MFI [31]: 877 MFI
MFI [32]: 1080 MFI
MFI [33]: 2060 MFI
